Laboratory results taken from the supplement of paper PMC5998384.

Experiments:
HeLa Kyoto [1] = test: solubility in G1/S (NP-40 vs SDS abundance) (log2 ratio); higher = more soluble; details: cell cycle stage: G1/S
HeLa Kyoto [2] = test: melting temperature (median over replicates), in situ; higher = more thermally stable
HeLa Kyoto [3] = test: solubility change mitosis vs G1/S (difference of NP-40 vs SDS log2 ratios) (log2 ratio difference); higher = more soluble in mitosis
HeLa Kyoto [4] = test: thermal stability score vs G1/S (z-score of summed log2 fold changes over temperatures); higher = more thermally stable than in G1/S
[5] = cell cycle stage: early G1 (4.5 h after nocodazole release)
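For melting temperature (median over replicates), in situ in this document: HeLa Kyoto cells synchronized by double thymidine or nocodazole block, proteins quantified by TMT10plex mass spectrometry, three independent biological replicates.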
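For solubility change mitosis vs G1/S (difference of NP-40 vs SDS log2 ratios) in this document: synchronized HeLa Kyoto cells (double thymidine block for G1/S, nocodazole release for mitosis), protein amounts in NP-40 versus SDS lysates quantified by mass spectrometry, three biological replicates.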
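For solubility in G1/S (NP-40 vs SDS abundance) in this document: HeLa Kyoto cells arrested at G1/S by double thymidine block, proteins quantified by TMT10plex mass spectrometry in mild NP-40 versus SDS extracts, three biological replicates.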
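For thermal stability score vs G1/S (z-score of summed log2 fold changes over temperatures) in this document: synchronized HeLa Kyoto cells, proteins quantified by TMT10plex mass spectrometry, three biological replicates, mitosis taken 0.5 h after nocodazole release, G1/S directly after double thymidine block.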

Row | Sequence | solubility in G1/S (log2) (HeLa Kyoto [1]) | melting temperature (HeLa Kyoto [2]; cell cycle stage: G1/S) [°C] | melting temperature (HeLa Kyoto [2]; cell cycle stage: mitosis) [°C] | solubility change mitosis (log2) (HeLa Kyoto [3]) | thermal stability score (HeLa Kyoto [4]; [5]) | thermal stability score (HeLa Kyoto [4]; cell cycle stage: mitosis)
1 | MEATGVLPFVRGVDLSGNDFKGGYFPENVKAMTSLRWLKLNRTGLCYLPEELAALQKLEHLSVSHNNLTTLHGELSSLPSLRAIVARANSLKNSGVPDDIFKLDDLSVLDLSHNQLTECPRELENAKNMLVLNLSHNSIDTIPNQLFINLTDLLYLDLSENRLESLPPQMRRLVHLQTLVLNGNPLLHAQLRQLPAMTALQTLHLRSTQRTQSNLPTSLEGLSNLADVDLSCNDLTRVPECLYTLPSLRRLNLSSNQITELSLCIDQWVHVETLNLSRNQLTSLPSAICKLSKLKKLYLNSNKLDFDGLPSGIGKLTNLEEFMAANNNLELVPESLCRCPKLRKLVLNKNHLVTLPEAIHFLTEIEVLDVRENPNLVMPPKPADRAAEWYNIDFSLQNQLRLAGASPATVAAAAAAGSGPKDPMARKMRLRRRKDSAQDDQAKQVLKGMSDVAQEKNKKQEESADARAPSGKVRRWDQGLEKPRLDYSEFFTEDVGQLPGLTIWQIENFVPVLVEEAFHGKFYEADCYIVLKTFLDDSGSLNWEIYYWIGGEATLDKKACSAIHAVNLRNYLGAECRTVREEMGDESEEFLQVFDNDISYIEGGTASGFYTVEDTHYVTRMYRVYGKKNIKLEPVPLKGTSLDPRFVFLLDRGLDIYVWRGAQATLSSTTKARLFAEKINKNERKGKAEITLLVQGQELPEFWEALGGEPSEIKKHVPEDFWPPQPKLYKVGLGLGYLELPQINYKLSVEHKQRPKVELMPRMRLLQSLLDTRCVYILDCWSDVFIWLGRKSPRLVRAAALKLGQELCGMLHRPRHATVSRSLEGTEAQVFKAKFKNWDDVLTVDYTRNAEAVLQSPGLSGKVKRDAEKKDQMKADLTALFLPRQPPMSLAEAEQLMEEWNEDLDGMEGFVLEGKKFARLPEEEFGHFYTQDCYVFLCRYWVPVEYEEEEKKEDKEEKAEGKEGEEATAEAEEKQPEEDFQCIVYFWQGREASNMGWLTFTFSLQKKFESLFPGKLEVVRMTQQQENPKFLSHFKRKFIIHRGKRKAVQGAQQPSLYQIRTNGSALCTRCIQINTDSSLLNSEFCFILKVPFESEDNQGIVYAWVGRASDPDEAKLAEDILNTMFDTSYSKQVINEGEEPENFFWVGIGAQKPYDDDAEYMKHTRLFRCSNEKGYFAVTEKCSDFCQDDLADDDIMLLDNGQEVYMWVGTQTSQVEIKLSLKACQVYIQHMRSKEHERPRRLRLVRKGNEQHAFTRCFHAWSAFCKALA [FLII] | -0.172 | 49.5 | 49.5 | -0.0947 | -0.0623 | 0.353
2 | MFPFYSCWRTGLLLLLLAVAVRESWQTEEKTCDLVGEKGKESEKELALVKRLKPLFNKSFESTVGQGSDTYIYIFRVCREAGNHTSGAGLVQINKSNGKETVVGRLNETHIFNGSNWIMLIYKGGDEYDNHCGKEQRRAVVMISCNRHTLADNFNPVSEERGKVQDCFYLFEMDSSLACSPEISHLSVGSILLVTFASLVAVYVVGGFLYQRLVVGAKGMEQFPHLAFWQDLGNLVADGCDFVCRSKPRNVPAAYRGVGDDQLGEESEERDDHLLPM [M6PR] | 0.0483 | 60.3 | 59.1 | -0.128 | -1.67 | -2.67
3 | MAGIAAKLAKDREAAEGLGSHDRAIKYLNQDYEALRNECLEAGTLFQDPSFPAIPSALGFKELGPYSSKTRGIEWKRPTEICADPQFIIGGATRTDICQGALGDCWLLAAIASLTLNEEILARVVPLNQSFQENYAGIFHFQFWQYGEWVEVVVDDRLPTKDGELLFVHSAEGSEFWSALLEKAYAKINGCYEALSGGATTEGFEDFTGGIAEWYELKKPPPNLFKIIQKALQKGSLLGCSIDITSAADSEAITFQKLVKGHAYSVTGAEEVESNGSLQKLIRIRNPWGEVEWTGRWNDNCPSWNTIDPEERERLTRRHEDGEFWMSFSDFLRHYSRLEICNLTPDTLTSDTYKKWKLTKMDGNWRRGSTAGGCRNYPNTFWMNPQYLIKLEEEDEDEEDGESGCTFLVGLIQKHRRRQRKMGEDMHTIGFGIYEVPEELSGQTNIHLSKNFFLTNRARERSDTFINLREVLNRFKLPPGEYILVPSTFEPNKDGDFCIRVFSEKKADYQAVDDEIEANLEEFDISEDDIDDGFRRLFAQLAGEDAEISAFELQTILRRVLAKRQDIKSDGFSIETCKIMVDMLDSDGSGKLGLKEFYILWTKIQKYQKIYREIDVDRSGTMNSYEMRKALEEAGFKMPCQLHQVIVARFADDQLIIDFDNFVRCLVRLETLFKIFKQLDPENTGTIELDLISWLCFSVL [CAPN2] | -0.0212 | 55.4 | 54.9 | -0.183 | -0.784 | -1.57
4 | MAAPPARADADPSPTSPPTARDTPGRQAEKSETACEDRSNAESLDRLLPPVGTGRSPRKRTTSQCKSEPPLLRTSKRTIYTAGRPPWYNEHGTQSKEAFAIGLGGGSASGKTTVARMIIEALDVPWVVLLSMDSFYKVLTEQQQEQAAHNNFNFDHPDAFDFDLIISTLKKLKQGKSVKVPIYDFTTHSRKKDWKTLYGANVIIFEGIMAFADKTLLELLDMKIFVDTDSDIRLVRRLRRDISERGRDIEGVIKQYNKFVKPSFDQYIQPTMRLADIVVPRGSGNTVAIDLIVQHVHSQLEERELSVRAALASAHQCHPLPRTLSVLKSTPQVRGMHTIIRDKETSRDEFIFYSKRLMRLLIEHALSFLPFQDCVVQTPQGQDYAGKCYAGKQITGVSILRAGETMEPALRAVCKDVRIGTILIQTNQLTGEPELHYLRLPKDISDDHVILMDCTVSTGAAAMMAVRVLLDHDVPEDKIFLLSLLMAEMGVHSVAYAFPRVRIITTAVDKRVNDLFRIIPGIGNFGDRYFGTDAVPDGSDEEEVAYTG [UCKL1] | -0.0507 | 51.6 | 51.6 | 0.0371 | -1.2 | -0.843
5 | MARGSAVAWAALGPLLWGCALGLQGGMLYPQESPSRECKELDGLWSFRADFSDNRRRGFEEQWYRRPLWESGPTVDMPVPSSFNDISQDWRLRHFVGWVWYEREVILPERWTQDLRTRVVLRIGSAHSYAIVWVNGVDTLEHEGGYLPFEADISNLVQVGPLPSRLRITIAINNTLTPTTLPPGTIQYLTDTSKYPKGYFVQNTYFDFFNYAGLQRSVLLYTTPTTYIDDITVTTSVEQDSGLVNYQISVKGSNLFKLEVRLLDAENKVVANGTGTQGQLKVPGVSLWWPYLMHERPAYLYSLEVQLTAQTSLGPVSDFYTLPVGIRTVAVTKSQFLINGKPFYFHGVNKHEDADIRGKGFDWPLLVKDFNLLRWLGANAFRTSHYPYAEEVMQMCDRYGIVVIDECPGVGLALPQFFNNVSLHHHMQVMEEVVRRDKNHPAVVMWSVANEPASHLESAGYYLKMVIAHTKSLDPSRPVTFVSNSNYAADKGAPYVDVICLNSYYSWYHDYGHLELIQLQLATQFENWYKKYQKPIIQSEYGAETIAGFHQDPPLMFTEEYQKSLLEQYHLGLDQKRRKYVVGELIWNFADFMTEQSPTRVLGNKKGIFTRQRQPKSAAFLLRERYWKIANETRYPHSVAKSQCLENSLFT [GUSB] | 0.259 | 56.4 | 58 | -0.164 | -0.942 | -0.838
6 | MANNSPALTGNSQPQHQAAAAAAQQQQQCGGGGATKPAVSGKQGNVLPLWGNEKTMNLNPMILTNILSSPYFKVQLYELKTYHEVVDEIYFKVTHVEPWEKGSRKTAGQTGMCGGVRGVGTGGIVSTAFCLLYKLFTLKLTRKQVMGLITHTDSPYIRALGFMYIRYTQPPTDLWDWFESFLDDEEDLDVKAGGGCVMTIGEMLRSFLTKLEWFSTLFPRIPVPVQKNIDQQIKTRPRKIKKDGKEGAEEIDRHVERRRSRSPRRSLSPRRSPRRSRSRSHHREGHGSSSFDRELEREKERQRLEREAKEREKERRRSRSIDRGLERRRSRSRERHRSRSRSRDRKGDRRDRDREREKENERGRRRDRDYDKERGNEREKERERSRERSKEQRSRGEVEEKKHKEDKDDRRHRDDKRDSKKEKKHSRSRSRERKHRSRSRSRNAGKRSRSRSKEKSSKHKNESKEKSNKRSRSGSQGRTDSVEKSKKREHSPSKEKSRKRSRSKERSHKRDHSDSKDQSDKHDRRRSQSIEQESQEKQHKNKDETV [PRPF38B] | -0.989 | 50 | 50.6 | 0.407 | 0.848 | 1.5
